The record followed here is patent publication US20180086836A1 (GLENMARK PHARMACEUTICALS S A, published 2018).

Assay [1] deals with T1, hsCCR6/mmN-term (human/mouse hybrid, UniProt P51684 36-374).
T1 construct: also called mutant 4; human CCR6 receptor containing a mouse N-terminal region
T1 chain: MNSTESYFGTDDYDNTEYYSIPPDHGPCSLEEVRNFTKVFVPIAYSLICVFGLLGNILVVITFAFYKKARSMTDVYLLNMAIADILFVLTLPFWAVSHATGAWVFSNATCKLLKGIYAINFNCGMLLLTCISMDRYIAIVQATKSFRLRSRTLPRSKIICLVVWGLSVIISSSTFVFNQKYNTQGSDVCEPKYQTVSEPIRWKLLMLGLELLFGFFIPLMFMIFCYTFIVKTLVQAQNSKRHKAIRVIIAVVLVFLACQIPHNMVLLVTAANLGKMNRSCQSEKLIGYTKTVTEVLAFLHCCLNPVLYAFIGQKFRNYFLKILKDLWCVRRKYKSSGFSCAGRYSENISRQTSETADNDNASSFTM
The assay is described as follows: flow cytometry on transfected cells (Murine Nter, Human loops 1-3), PE-labelled secondary antibody. How it is done:
(§1) Binding of the chimeric 4H11 antibody to human/mouse CCR6 hybrid constructs was evaluated by flow cytometry. Human/mouse CCR6 transfectants were counted and 2×10⁵ cells were incubated with 10 μg/ml of chimeric 4H11 antibody. Binding activity of 4H11 was detected with anti-human IgG-PE. To evaluate good expression of the human/mouse chimera on cells, two commercial antibodies directed against human and mouse CCR6 were used. Histogram plots show the geometric mean of fluorescence intensity (Y-axis) measured by flow cytometry
(§2) Binding of MAb to the surface of CCR6 transfected CHO cells was assessed using flow cytometry. 2×10⁵ cells were distributed in a 96 well V bottom plate and centrifuged for three minutes at 1300 rpm. Cells were collected and incubated with the appropriate mAb at a final concentration of 10 μg/ml in a volume of 50 μl in FACS buffer. Cells were incubated for 30 minutes on ice, washed twice and resuspended in 50 μl of PE-labelled secondary antibody diluted at 1/200 in FACS buffer. Cells were incubated for 15 minutes on ice, washed once, resuspended in 400 μl of FACS buffer and analyzed on the FACS instrument (Cyan, Beckman Coulter) in channel FL-2.
Background: Flow cytometry measures light scatter and fluorescence of single cells or particles in a stream.

Assay [2] addresses T2, hsCCR6/mmECL2 (human/mouse hybrid, UniProt P51684 1-374).
T2 construct: also called second mutant; pT1-hsCCR6/mmECL2
T2 chain: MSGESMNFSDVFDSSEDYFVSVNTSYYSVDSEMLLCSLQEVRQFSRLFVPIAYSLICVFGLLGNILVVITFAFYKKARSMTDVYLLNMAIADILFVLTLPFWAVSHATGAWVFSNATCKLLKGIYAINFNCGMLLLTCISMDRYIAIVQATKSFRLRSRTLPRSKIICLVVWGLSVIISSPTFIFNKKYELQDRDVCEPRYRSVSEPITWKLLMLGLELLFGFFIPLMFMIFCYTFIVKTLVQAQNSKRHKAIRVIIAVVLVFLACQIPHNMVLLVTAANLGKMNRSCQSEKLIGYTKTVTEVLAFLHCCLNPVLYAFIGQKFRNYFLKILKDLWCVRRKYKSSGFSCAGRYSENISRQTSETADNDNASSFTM
The assay is described as follows: flow cytometry on transfected cells (Human Nter, only loop 2 drawn black as murine), 10 µg/ml, PE-labelled secondary antibody. As for the experimental part:
as §1, §2

The target of assay [3] is T3, mouse CCR6 (mouse, UniProt O54689 1-367).
T3 construct: also called mmCCR6; murine CCR6
T3 sequence: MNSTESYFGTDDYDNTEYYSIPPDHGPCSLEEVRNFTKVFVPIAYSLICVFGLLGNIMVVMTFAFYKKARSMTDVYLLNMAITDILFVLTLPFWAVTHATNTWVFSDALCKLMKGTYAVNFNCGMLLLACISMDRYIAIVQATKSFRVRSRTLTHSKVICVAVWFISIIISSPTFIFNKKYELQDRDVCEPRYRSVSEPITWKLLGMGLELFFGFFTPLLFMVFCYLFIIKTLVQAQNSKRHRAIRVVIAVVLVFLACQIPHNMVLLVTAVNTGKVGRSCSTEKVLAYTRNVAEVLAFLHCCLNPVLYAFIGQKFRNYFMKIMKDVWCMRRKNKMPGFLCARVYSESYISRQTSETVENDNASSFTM
The assay is described as follows: not given; premise of the human/mouse hybrid mapping.

In assay [4] the target is T4, hsCCR6/mmECL1 (human/mouse hybrid, UniProt P51684 1-374).
T4 construct: also called first mutant; pT1-hsCCR6/mmECL1
T4 chain: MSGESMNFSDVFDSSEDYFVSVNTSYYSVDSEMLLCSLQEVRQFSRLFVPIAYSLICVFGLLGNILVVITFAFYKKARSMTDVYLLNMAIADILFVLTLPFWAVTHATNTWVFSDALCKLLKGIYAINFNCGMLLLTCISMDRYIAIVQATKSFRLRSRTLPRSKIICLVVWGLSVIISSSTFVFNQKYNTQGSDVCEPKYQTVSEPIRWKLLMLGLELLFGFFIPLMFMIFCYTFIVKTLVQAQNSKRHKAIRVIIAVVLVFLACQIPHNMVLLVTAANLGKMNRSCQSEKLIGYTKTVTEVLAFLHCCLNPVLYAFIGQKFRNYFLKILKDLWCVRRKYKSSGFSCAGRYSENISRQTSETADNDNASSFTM
The assay is described as follows: flow cytometry on transfected cells (Human Nter, Murine loop 1, Human loops 2 and 3), 10 µg/ml, PE-labelled secondary antibody. As for the experimental part: as §1, §2

Assay [5] concerns the target T5, hsCCR6/mmECL3 (human/mouse hybrid, UniProt P51684 1-374).
T5 construct: also called third mutant; pT1-hsCCR6/mmECL3
T5 chain: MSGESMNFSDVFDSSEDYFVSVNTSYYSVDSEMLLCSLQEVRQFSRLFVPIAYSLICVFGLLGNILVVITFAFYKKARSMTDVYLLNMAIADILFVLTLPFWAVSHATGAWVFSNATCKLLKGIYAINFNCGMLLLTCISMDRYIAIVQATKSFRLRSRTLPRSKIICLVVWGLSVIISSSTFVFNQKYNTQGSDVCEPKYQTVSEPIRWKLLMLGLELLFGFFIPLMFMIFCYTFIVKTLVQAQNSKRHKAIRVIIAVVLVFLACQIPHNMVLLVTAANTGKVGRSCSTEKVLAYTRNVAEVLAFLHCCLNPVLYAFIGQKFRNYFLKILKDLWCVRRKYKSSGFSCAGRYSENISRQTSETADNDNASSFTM
The assay is described as follows: flow cytometry on transfected cells (Human Nter, only loop 3 drawn black as murine), 10 µg/ml, PE-labelled secondary antibody. How it is done: as §1, §2

The target of assay [6] is T6, mmCCR6/hsN-term (human/mouse hybrid).
T6 construct: also called mutant 5; mouse CCR6 receptor containing a human N-terminal region
T6 chain: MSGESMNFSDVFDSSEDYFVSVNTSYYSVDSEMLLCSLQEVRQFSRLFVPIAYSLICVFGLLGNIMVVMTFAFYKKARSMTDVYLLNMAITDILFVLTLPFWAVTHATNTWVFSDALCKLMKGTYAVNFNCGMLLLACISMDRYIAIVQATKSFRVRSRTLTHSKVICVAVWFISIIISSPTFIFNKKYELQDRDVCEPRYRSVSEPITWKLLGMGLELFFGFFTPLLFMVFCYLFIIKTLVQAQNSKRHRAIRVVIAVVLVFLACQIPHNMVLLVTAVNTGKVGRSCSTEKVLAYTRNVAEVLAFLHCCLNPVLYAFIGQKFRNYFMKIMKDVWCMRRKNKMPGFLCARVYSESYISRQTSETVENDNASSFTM
The assay is described as follows: flow cytometry on transfected cells (Human Nter, Murine loops 1-3), 10 µg/ml, PE-labelled secondary antibody. How it is done: as §1, §2

B1: chimeric 4H11 antibody (antibody, human IgG1, kappa, V domains shown)
VH: EVKLVESGGGLVQPGGSLKLSCATSGFSFSDYYMYWIRQTPEKRLEWVAYITNGGITYYPDTVKGRFTISRDNAKNTLYLQMSRLRSEDTAMYYCTSPLRGAWFAYWGQGTLVTVSS
VL: DVIMTQSPLSLPVSLGDQASISCRSSQSIVHSNGNTYLEWYLQKPGQSPKLLIYKVSNRFSGVPDRFSGSGSGTDFTLKISRVEAEDLGLYYCFQGSHVPLTFGAGTKLEIKR
notes: also called chimeric 4H11 mAb; 4H11 chimeric antibody
As for B1, the binding result is recorded as “no binding (tested: 10 µg/ml)” in assay [1]; “binds” in assay [2]; “no binding” in assay [3]; “binds” in assay [4]; “binds” in assay [5]; “binds” in assay [6].
